Experimental data taken from doi:10.1101/2020.08.10.245050, “Crystal structures of Arabidopsis and Physcomitrella CR4 reveal the molecular architecture of CRINKLY4 receptor kinases” (bioRxiv, 2020).
Read-outs that look alike come from different tables or passages of the source. Where no end group is shown, it is not given here. [ ]: non-standard residue; d: D form. Hyp = O=C(O)[C@@H]1C[C@@H](O)CN1

What was measured:
[1] = target: T1, biotinylated LRR ectodomain of BARELY ANY MERISTEM 1 (BAM1, residues 20 - 637) with Avi-tag (Arabidopsis (printed as AtBAM1), UniProt O49545 20-637, biotin (BirA biotinylation)); experiment: grating-coupled interferometry (GCI); Creoptix WAVE, 4PCP chip; biotinylated ectodomain captured on immobilised streptavidin; CLE40 peptide as analyte, 1:2 dilution series from 10 µM; 25 °C; 20 mM citrate pH 5.0, 250 mM NaCl, 0.01 % Tween 20; mass transport binding model; triplicates; conditions: both partners purified
T1 construct: BAM1 (AtBAM1) LRR ectodomain, residues 20-637, synthetic gene (Geneart), secreted with the Drosophila melanogaster BiP signal peptide; The sentence on the vector most likely means that the non-cleavable Avi-tag is C-terminal as well; also called AtBAM1^LRR; BAM1^LRR; source: biotinylated with BirA; not shown: StrepII, C-terminal, cleaved; 10x His, C-terminal, cleaved
T1 sequence (looked up): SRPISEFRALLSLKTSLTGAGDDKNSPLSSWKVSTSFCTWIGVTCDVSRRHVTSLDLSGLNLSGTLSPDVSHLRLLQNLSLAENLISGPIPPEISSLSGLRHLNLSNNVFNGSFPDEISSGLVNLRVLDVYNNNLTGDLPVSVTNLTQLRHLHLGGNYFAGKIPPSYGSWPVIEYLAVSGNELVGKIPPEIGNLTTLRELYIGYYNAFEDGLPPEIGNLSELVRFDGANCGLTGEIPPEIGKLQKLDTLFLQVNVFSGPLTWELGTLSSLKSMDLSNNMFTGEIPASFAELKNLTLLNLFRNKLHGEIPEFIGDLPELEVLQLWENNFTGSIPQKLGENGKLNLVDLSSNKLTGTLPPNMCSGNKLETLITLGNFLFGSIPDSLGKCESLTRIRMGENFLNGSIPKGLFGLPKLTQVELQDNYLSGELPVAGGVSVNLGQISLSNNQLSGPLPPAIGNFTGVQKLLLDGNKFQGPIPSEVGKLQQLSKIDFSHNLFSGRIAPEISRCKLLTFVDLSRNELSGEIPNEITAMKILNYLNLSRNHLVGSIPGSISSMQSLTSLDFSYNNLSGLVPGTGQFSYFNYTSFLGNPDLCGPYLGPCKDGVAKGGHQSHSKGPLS

[2] = target: T2, biotinylated LRR ectodomain of BARELY ANY MERISTEM 1 (BAM1, residues 20 - 637) with Avi-tag (Arabidopsis (printed as AtBAM1), UniProt O49545 20-637, biotin (BirA biotinylation))
T2 chain: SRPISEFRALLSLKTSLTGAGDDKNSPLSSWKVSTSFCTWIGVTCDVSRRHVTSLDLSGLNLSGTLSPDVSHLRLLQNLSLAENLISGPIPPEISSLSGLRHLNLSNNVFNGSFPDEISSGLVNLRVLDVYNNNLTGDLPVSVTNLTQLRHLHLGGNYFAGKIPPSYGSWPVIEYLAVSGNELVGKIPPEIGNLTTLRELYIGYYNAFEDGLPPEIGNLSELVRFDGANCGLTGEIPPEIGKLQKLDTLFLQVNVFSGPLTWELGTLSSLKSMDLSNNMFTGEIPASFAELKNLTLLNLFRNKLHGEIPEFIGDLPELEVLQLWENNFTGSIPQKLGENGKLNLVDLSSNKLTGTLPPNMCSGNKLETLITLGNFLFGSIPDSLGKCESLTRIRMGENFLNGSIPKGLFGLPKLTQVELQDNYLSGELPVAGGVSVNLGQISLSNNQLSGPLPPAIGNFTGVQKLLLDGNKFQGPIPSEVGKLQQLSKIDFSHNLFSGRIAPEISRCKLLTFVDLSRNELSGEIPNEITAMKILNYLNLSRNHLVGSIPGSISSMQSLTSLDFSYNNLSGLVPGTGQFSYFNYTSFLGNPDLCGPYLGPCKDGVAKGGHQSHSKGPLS

[3] = target: T2, biotinylated LRR ectodomain of BARELY …

B1: CLAVATA3/ESR-RELATED 40 (CLE40) peptide (peptide)
peptide: RQV[Hyp]TGSDPLHH
notes: the P at position 4 is hydroxyproline; also called synthetic CLE40 peptide; source: synthetic peptide (Peptide Specialty Labs GmbH)
With B1 the Kd [1] was ~1000 nM, the koff [2] was 2.4 s⁻¹ and the Kd [3] was 697 nM.
